In patent US6512097:
Residue numbers refer to the chain shown, from its start. In names and notes the source's numbering stands. Like-named read-outs stand apart in the source and are kept apart here.

Columns and labels:
[1] = biological target: T1, c-erbB-2 ECD with a Ser-Gly-His6 C-terminal fusion (UniProt P04626 23-652); assay: SPR BIAcore
T1 construct: extracellular domain; Expressed from CHO cells, IMAC purified; coupled to a CM5 chip, coated on plates, or biotinylated with NHS-LC-biotin; also called c-erbB-2 extracellular domain; biotinylated c-erbB-2 ECD

[2] = biological target: T1, c-erbB-2 ECD with a Ser-Gly-His6 …; assay: SPR BIAcore; remark: listed apart in the source
[3] = biological target: T2, c-erbB-2 expressed on cells (SK-OV-3, SK-BR-3) (UniProt P04626 23-1255, limits assumed); assay: Scatchard on SK-OV-3 cells
T2 construct: whole, on cells; also called native c-erbB-2 expressed on cells; c-erbB-2 on SK-OV-3 cells
Method: (§1) All assays were performed in triplicate. […] The amount of labeled sFv bound to the cells was determined by counting the pellets in a gamma counter and the K_a, and K_d were calculated using the EBDA program (V 2.0, G. A. McPherson, 1983).

[4] = biological target: T2, c-erbB-2 expressed on cells (SK-OV-3, …); assay: Scatchard on SK-OV-3 cells; remark: listed apart in the source
Method: as §1

[5] = biological target: T2, c-erbB-2 expressed on cells (SK-OV-3, …); assay: Scatchard after radioiodination, SK-OV cells
Method: (§2) All assays were performed in triplicate. Briefly, […] of radioiodinated sFv was added to 5×10^6 SK-OV cells in the presence of increasing concentrations of unlabeled sFv from the same preparation. After a 30 minute incubation at 20° C., the samples were washed with PBS at 4° C. and centrifuged at 500 g. The amount of labeled sFv bound to the cells was determined by counting the pellets in a gamma counter and the K_a, and K_d were calculated using the EBDA program (V 2.0, G. A. McPherson, 1983). The K_d of all the other isolated sFv were determined using surface plasmon resonance in a BIAcore (Pharmacia). In a BIAcore flow cell, approximately 1400 resonance units (RU) of c-erbB-2 ECD (25 μg/ml in 10 mM sodium acetate, pH 4.5) was coupled to a CM5 sensor chip (Johnsson et al. (1991), supra). Association and dissociation-rates were measured under continuous flow of […] using a concentration range from 50 to 800 nM. Rate constant $kon$ was determined from a plot of (1(dR/dt))/t vs concentration (Karlsson et al. (1991), supra). Rate constant $Hoff$ was determined from the dissociation part of the sensorgram at the highest concentration of sFv analyzed.
(§3) These clones were purified by IMAC after subcloning into PUC119SFI/NotmycHis, and the affinity determined by Scatchard analysis.

[6] = biological target: T1, c-erbB-2 ECD with a Ser-Gly-His6 …; assay: competition ELISA, sFv preincubated with soluble c-erbB-2 (0 to 100 nM)
Method: Meth. 77: 305–319). Immunolon 4 ELISA plates (Dynatech) were coated with avidin in PBS (10 μg/ml) at 4° C. overnight. Biotinylated c-erbB-2 ECD (5 μg/ml) was added to the wells and incubated for 30 min at room temperature. Bacterial supernatant containing sFv was incubated with varying concentrations of c-erbB-2 (0 to 100 nM) at 4° C. for 1 h. The amount of free sFv was then determined by transferring 100 μl of each mixture into the wells of the previously prepared ELISA plate and incubating for 1 h at 4° C. Binding of sFv was detected as under ELISA screening and the IC50 calculated as described (Friguet et al. (1985), supra)
as §3

[7] = biological target: T1, c-erbB-2 ECD with a Ser-Gly-His6 …; assay: SPR BIAcore; remark: listed apart in the source
[8] = biological target: T1, c-erbB-2 ECD with a Ser-Gly-His6 …; assay: SPR BIAcore; remark: listed apart in the source
Method: as §2

[9] = biological target: T1, c-erbB-2 ECD with a Ser-Gly-His6 …; assay: SPR BIAcore; remark: listed apart in the source
[10] = biological target: T1, c-erbB-2 ECD with a Ser-Gly-His6 …; assay: SPR BIAcore; remark: listed apart in the source
[11] = biological target: T1, c-erbB-2 ECD with a Ser-Gly-His6 …; assay: SPR BIAcore; remark: listed apart in the source
[12] = biological target: T1, c-erbB-2 ECD with a Ser-Gly-His6 …; assay: SPR BIAcore (Kd ND, expression too low)
[13] = biological target: T1, c-erbB-2 ECD with a Ser-Gly-His6 …; assay: SPR BIAcore, unpurified sFv
[14] = biological target: T1, c-erbB-2 ECD with a Ser-Gly-His6 …; assay: SPR BIAcore; remark: listed apart in the source
Method: as §2

B1: 741F8 sFv (scFv, V domains shown)
VH: EIQLVQSGPELKKPGETVKISCKASGYTFTNYGMNWVKQAPGKGLKWMGWINTNTGEPTYAEEFKGRFAFSLETSASTAYLQINNLKNEDTATYFCGRQFITYGGFANWGQGTLVTVSA
VL: DIVMTQSPKFMSTSVGDRVSISCKASQDVSTAVAWYQQKPGQSPKLLIYWTSTRHTGVPDRFTGSGSGTDYTLTISSVQAEDLALHYCQQHYRVPYTFGGGTKLEIK
Kd [1]: 26 nM | koff [1]: 0.0064 s⁻¹ | kon [1]: 240000 M⁻¹ s⁻¹ | Kd [2]: 26 nM | koff [2]: 0.0064 s⁻¹ | kon [2]: 240000 M⁻¹ s⁻¹ | Kd [3]: 54 nM | Kd [4]: 54 nM

B2: C6VLB (scFv)
scFv: QVQLLQSGAELKKPGESLKISCKGSGYSFTSYWIAWVRQMPGKGLEYMGLIYPGDSDTKYSPSFQGQVTISVDKSVSTAYLQWSSLKPSDSAVYFCARHDVGYCSSSNCAKWPEYFQHWGQGTLVTVSSGGGGSGGGGSGGGGSQSVLTQPPSVSAAPGQKVTISCSGSSSNIGNNYVSWYQQLPGTAPKLLIYSDNQRPSGVPDRFSGSKSGTSASLAISGLRSEDEADYYCAAWDDSLSGHWVFGGGTKLTVLG
notes: Light chain shuffled; mixture of monomer and dimer by gel filtration
Kd [5]: 30 nM | IC50 [6]: 10 nM

B3: C6H1 (scFv)
chain: QVQLVESGAEVKKPRESLKISCKGSGYSFTSYEIAWVRQMPGKGLEYMGLIYPGDSDTKYSPSFQGQVTISVDKSVSTAYLQWSSLKPSDTAMYYCARHDVGYCSSSNCAKWPEYFQHWGQGTLVTVSSGGGGSGGGGSGGGGSQSVLTQPPSVSAAPGQKVTISCSGSSSNIGNNYVSWYQQLPGTAPKLLIYGHTNRPAGVPDRFSGSKSGTSASLAISGFRSEDEADYYCAAWDDSLSGWVFGGGTKLTVLG
fold higher affinity than C6.5 [7]: 3 fold | Kd [8]: 5.9 nM

B4: C6H1L1 (scFv)
chain: B3 chain with A156G, K161W, G195D, H196N, T197N, N198K, A201S, K211Q, F223L
Kd [8]: 15 nM

B5: C6H2 (scFv)
scFv: B3 chain with E6Q, E33W, G54A, D57K, K59I, P88T
notes: Heavy chain shuffled
fold higher affinity than C6.5 [7]: 5 fold | Kd [8]: 3.1 nM

B6: C6ML3-9 (scFv)
scFv: QVQLLQSGAELKKPGESLKISCKGSGYSFTSYWIAWVRQMPGKGLEYMGLIYPGDSDTKYSPSFQGQVTISVDKSVSTAYLQWSSLKPSDSAVYFCARHDVGYCSSSNCAKWPEYFQHWGQGTLVTVSSGGGGSGGGGSGGGGSQSVLTQPPSVSAAPGQKVTISCSGSSSNIGNNYVSWYQQLPGTAPKLLIYGHTNRPAGVPDRFSGSKSGTSASLAISGFRSEDEADYYCASWDYTLSGWVFGGGTKLTVLG
notes: template (wt) of the VH CDR3 libraries; also called C6ML3-9 (wt); C6ML-9
t1/2 calculated from koff [7]: 13 min | Kd [9]: 1 nM | koff [9]: 0.00092 s⁻¹ | Kd [10]: 1 nM | koff [10]: 0.00076 s⁻¹ | Kd [11]: 1 nM | koff [11]: 0.00019 s⁻¹

B7: C6MH3-D7 (scFv)
scFv: B6 scFv with Y115W, F116Q, Q117D, H118P
notes: C6ML3-9 sFv, VH CDR3 library D mutant; expression too low for a purified Kd
koff [12]: 0.00031 s⁻¹

B8: C6ML3-A2 (scFv)
scFv: B6 scFv with Y103F
notes: C6ML3-9 sFv, VH CDR3 library A clone; unpurified in the koff screen; also called mutant sFv with the conservative replacement of Y99F
fold lower apparent koff than wt [13]: 2.5 fold

B9: C6L1 sFv (scFv)
scFv: QVQLLQSGAELKKPGESLKISCKGSGYSFTSYWIAWVRQMPGKGLEYMGLIYPGDSDTKYSPSFQGQVTISVDKSVSTAYLQWSSLKPSDSAVYFCARHDVGYCSSSNCAKWPEYFQHWGQGTLVTVSSGGGGSGGGGSGGGGSQSVLTQPPSVSGAPGQWVTISCSGSSSNIGNNYVSWYQQLPGTAPKLLIYDNNKRPSGVPDRFSGSQSGTSASLAISGLRSEDEADYYCAAWDDSLSGWVFGGGTKLTVLG
notes: Light chain shuffled: C6.5 VH with new VL; also called C6L1 (light chain shuffle)
Kd [7]: 2.5 nM | fold higher affinity than parental [7]: 6 fold | Kd [14]: 2.6 nM | koff [14]: 0.002 s⁻¹ | kon [14]: 780000 M⁻¹ s⁻¹ | Kd [8]: 2.6 nM

B10: C6VLF (scFv)
scFv: QVQLLQSGAELKKPGESLKISCKGSGYSFTSYWIAWVRQMPGKGLEYMGLIYPGDSDTKYSPSFQGQVTISVDKSVSTAYLQWSSLKPSDSAVYFCARHDVGYCSSSNCAKWPEYFQHWGQGTLVTVSSGGGGSGGGGSGGGGSQSVLTQPPSMSAAPGQKVTISCSGSSSNIGNNYVSWYQQFPGTAPKLLIHDNNKRPSGIPDRISGSKSGTSASLAISGLQSDDEADYYCAAWDDSLNGWVFGGGTKLTVLG
modifications: Radioiodinated for the Scatchard assay; the label is not carried in the letters.
notes: as for B2
Kd [5]: 79 nM | IC50 [6]: 7.5 nM

B11: C6VLD (scFv)
scFv: QVQLLQSGAELKKPGESLKISCKGSGYSFTSYWIAWVRQMPGKGLEYMGLIYPGDSDTKYSPSFQGQVTISVDKSVSTAYLQWSSLKPSDSAVYFCARHDVGYCSSSNCAKWPEYFQHWGQGTLVTVSSGGGGSGGGGSGGGGSQSVLTQPPSVSAAPGQKVTISCSGTNSNIGNNYVSWYQQLPGTAPKLLIYTNDQRPSGVPDRFSGSKSGTSASLAISGLQSEDEADYYCAAWDDSLNGWMFGGGTKLTVLG
modifications: Radioiodinated for the Scatchard assay; the label is not carried in the letters.
notes: as for B2
Kd [5]: 26 nM | IC50 [6]: 5.8 nM

B12: C6VLE (scFv)
scFv: QVQLLQSGAELKKPGESLKISCKGSGYSFTSYWIAWVRQMPGKGLEYMGLIYPGDSDTKYSPSFQGQVTISVDKSVSTAYLQWSSLKPSDSAVYFCARHDVGYCSSSNCAKWPEYFQHWGQGTLVTVSSGGGGSGGGGSGGGGSQSVLTQPPSVSAAAGQKVTISCSGSSSSIGRNYVSWNQQLPGTAPKLLIWRNNQRPSGVPDRFSGSKSGTSASLAISGVRSEDEADYYCASWDNSLSGWVFGGGTKLTVLG
modifications: Radioiodinated for the Scatchard assay; the label is not carried in the letters.
notes: as for B2
Kd [5]: 71 nM | IC50 [6]: 2.8 nM

B13: C6H2L1 (scFv)
scFv: B9 scFv with L5V, L11V, G15R, G54A, D57K, K59I, P88T, S91T, V93M, F95Y
Kd [8]: 6 nM
